# Results published in article PMC11480844.
# B1: H2-Kb / E9 (parent)
# chain 1: QQKVQQSPESLTVSEGAMASLNCTFSDRSSDNFRWYRQHSGKGLEVLVSIFSDGEKEEGSFTAHLNRASLHVFLHIREPQPSDSALYLCAVSRSSGSWQLIFGSGTQLTVMP
# chain 2: NSGVVQSPRYIIKGKGERSILKCIPISGHLSVAWYQQTQGQELKFFIQHYDKMERDKGNLPSRFSVQQFDDYHSEMNMSALELEDSAVYFCASSRDSNNQAPLFGEGTRLSVL
# chain 3: not shown
# chain 4: IQKTPQIQVYSRHPPENGKPNILNCYVTQFHPPHIEIQMLKNGKKIPKVEMSDMSFSKDWSFYILAHTEFTPTETDTYACRVKHDSMAEPKTVYWDRDM
# chain 5: SIINFEKL
# B2: H2-Kb / B3 (parent)
# chain 1: GQQVKQSSPSLTVQEGGISILNCDYENDMFDYFAWYKKYPDNSPTLLISVRSNVDKREDGRLTVFLNKSGKHFSLHITASQPEDTAVYLCAAGNTGYQNFYFGKGTSLTVIP
# chain 2: DSGVVQSPRHIIKEKGGRSVLTCIPISGHSNVVWYQQTLGKELKFLIQHYEKVERDKGFLPSRFSVQQFDDYHSEMNMSALELEDSAMYFCASSSLQGARNQAPLFGEGTRLSVL
# chain 3: not shown
# chain 4: B1 chain 4
# chain 5: SIINFEKL
# B3: H2-Kb / H5 (parent)
# chain 1: GEQVEQRPPHLSVREGDSAVIICTYTDPNSYYFFWYKQEPGAGLQLLMKVFSSTEINEGQGFTVLLNKKDKQLSLNLTAAHPGDSAVYFCAVSNYGSSGNKLIFGIGTLLSVKP
# chain 2: EAAVTQSPRNKVAVTGGKVTLSCNQTNNHNNMYWYRQDTGHGLRLIHYSYGAGSTEKGDIPDGYKASRPSQENFSLILELATPSQTSVYFCASGDRERDTQYFGPGTRLLVL
# chain 3: not shown
# chain 4: B1 chain 4
# chain 5: SIINFEKL
# B4: H2-Kb / B13 (parent)
# chain 1: AQKVTQTQTSISVMEKTTVTMDCVYETQDSSYFLFWYKQTASGEIVFLIRQDSYKKENATVGHYSLNFQKPKSSIGLIITATQIEDSAVYFCAMREGTGGYKVVFGSGTRLLVSP
# chain 2: EAAVTQSPRNKVTVTGGNVTLSCRQTNSHNYMYWYRQDTGHGLRLIHYSYGAGNLQIGDVPDGYKATRTTQEDFFLLLELASPSQTSLYFCASSDGTGHEQYFGPGTRLTVL
# chain 3: not shown
# chain 4: B1 chain 4
# chain 5: SIINFEKL
# Variants of: B1
# Assay: % of reporter cells activated (NFAT-GFP), raw
# Conditions: with E9; scale: % of reporter cells activated
# Also: test concentration or dose not given here.
row,Variant,ratio to parent
1,chain 5 S1E,2.1
2,chain 5 S1I,2.49
3,chain 5 S1M,1.5
4,chain 5 S1H,2.01
5,chain 5 S1Y,1.2
6,chain 5 S1Q,1.16
7,chain 5 S1L,2.01
8,chain 5 S1T,1.35
9,chain 5 S1A,3.05
10,chain 5 S1R,0.719
11,chain 5 S1K,1.23
12,chain 5 S1P,1.23
13,chain 5 S1D,1.29
14,chain 5 S1N,1.32
15,chain 5 S1V,1.86
16,chain 5 S1F,2.34
17,chain 5 S1W,1.2
18,chain 5 S1C,3.08
19,chain 5 S1G,2.1
20,chain 5 N4V,2.04
21,chain 5 N4Y,1.15
22,chain 5 N4Q,1.38
23,chain 5 N4S,1.89
24,chain 5 N4W,1.77
25,chain 5 N4G,1.35
26,chain 5 N4I,1.92

row,Variant,ratio to parent
1,chain 5 N4C,2.34
2,chain 5 N4E,1.68
3,chain 5 N4L,2.31
4,chain 5 N4F,1.38
5,chain 5 N4T,1.47
6,chain 5 N4A,2.22
7,chain 5 N4D,1.11
8,chain 5 N4K,2.4
9,chain 5 N4H,2.63
10,chain 5 N4M,1.71
11,chain 5 N4R,1.59
12,chain 5 N4P,2.07
13,chain 5 F5C,1.95
14,chain 5 F5Q,1.32
15,chain 5 F5L,1.98
16,chain 5 F5Y,2.37
17,chain 5 F5P,2.51
18,chain 5 F5V,1.89
19,chain 5 F5W,1.14
20,chain 5 F5T,1.45
21,chain 5 F5H,1.89
22,chain 5 F5K,2.54
23,chain 5 F5E,2.43
24,chain 5 F5R,0.671
25,chain 5 F5S,1.83
26,chain 5 F5N,2.01

row,Variant,ratio to parent
1,chain 5 F5D,3.05
2,chain 5 F5M,1.74
3,chain 5 F5I,1.02
4,chain 5 F5G,1.74
5,chain 5 F5A,1.68
6,chain 5 L8E,1.26
7,chain 5 L8I,0.988
8,chain 5 L8N,0.838
9,chain 5 L8D,0.605
10,chain 5 L8F,1.77
11,chain 5 L8A,0.868
12,chain 5 L8S,0.886
13,chain 5 L8W,0.778
14,chain 5 L8V,0.302
15,chain 5 L8C,2.78
16,chain 5 L8Q,0.898
17,chain 5 L8Y,1.2
18,chain 5 L8R,1.53
19,chain 5 L8H,1.92
20,chain 5 L8G,1.25
21,chain 5 L8P,1.35
22,chain 5 L8T,0.623
23,chain 5 L8K,1.14
24,chain 5 L8M,0.988
25,chain 5 I2T,2.01
26,chain 5 I2K,1.2

row,Variant,ratio to parent
1,chain 5 I2E,2.07
2,chain 5 I2G,1.32
3,chain 5 I2W,1.86
4,chain 5 I2M,1.59
5,chain 5 I2L,1.5
6,chain 5 I2C,2.31
7,chain 5 I2P,1.77
8,chain 5 I2D,2.31
9,chain 5 I2F,1.02
10,chain 5 I2N,1.77
11,chain 5 I2H,1.71
12,chain 5 I2R,1.06
13,chain 5 I2Q,1.77
14,chain 5 I2Y,1.53
15,chain 5 I2V,2.13
16,chain 5 I2S,1.46
17,chain 5 I2A,2.22
18,chain 5 I3R,1.89
19,chain 5 I3H,1.53
20,chain 5 I3P,1.68
21,chain 5 I3G,1.62
22,chain 5 I3E,1.86
23,chain 5 I3D,1.41
24,chain 5 I3A,1.71
25,chain 5 I3N,0.778
26,chain 5 I3M,1.17

row,Variant,ratio to parent
1,chain 5 I3V,1.23
2,chain 5 I3S,2.13
3,chain 5 I3W,1.74
4,chain 5 I3Y,2.43
5,chain 5 I3Q,1.83
6,chain 5 I3K,2.31
7,chain 5 I3F,1.26
8,chain 5 I3T,1.68
9,chain 5 I3L,2.07
10,chain 5 I3C,1.65
11,chain 5 E6K,1.98
12,chain 5 E6W,2.07
13,chain 5 E6N,1.47
14,chain 5 E6I,2.63
15,chain 5 E6L,1.35
16,chain 5 E6Y,2.84
17,chain 5 E6A,2.25
18,chain 5 E6F,1.68
19,chain 5 E6V,3.26
20,chain 5 E6H,1.47
21,chain 5 E6D,1.68
22,chain 5 E6M,1.86
23,chain 5 E6G,1.74
24,chain 5 E6R,2.34
25,chain 5 E6S,2.46
26,chain 5 E6T,2.1

row,Variant,ratio to parent
1,chain 5 E6P,2.1
2,chain 5 E6C,0.862
3,chain 5 E6Q,1.47
4,chain 5 K7M,1.02
5,chain 5 K7V,1.71
6,chain 5 K7S,1.41
7,chain 5 K7W,1.38
8,chain 5 K7Q,2.28
9,chain 5 K7D,1.53
10,chain 5 K7Y,1.26
11,chain 5 K7R,0.237
12,chain 5 K7E,2.1
13,chain 5 K7L,2.01
14,chain 5 K7T,2.01
15,chain 5 K7N,1.95
16,chain 5 K7I,2.54
17,chain 5 K7H,2.43
18,chain 5 K7F,0.958
19,chain 5 K7G,1.92
20,chain 5 K7A,0.686
21,chain 5 K7C,3.02
22,chain 5 K7P,2.07

# Variants of: B2
# Assay: % of reporter cells activated (NFAT-GFP), raw
# Conditions: with B3; scale: % of reporter cells activated
row,Variant,ratio to parent
1,chain 5 S1G,0.192
2,chain 5 S1N,0.0477
3,chain 5 S1M,0.195
4,chain 5 S1D,0.229
5,chain 5 S1Y,0.576
6,chain 5 S1F,0.18
7,chain 5 S1H,0.259
8,chain 5 S1V,0.34
9,chain 5 S1E,0.216
10,chain 5 S1I,0.207
11,chain 5 S1Q,0.266
12,chain 5 S1W,0.138
13,chain 5 S1T,0.194
14,chain 5 S1P,0.303
15,chain 5 S1L,0.118
16,chain 5 S1K,0.356
17,chain 5 S1R,0.101

# Variants of: B3
# Assay: % of reporter cells activated (NFAT-GFP), raw
# Conditions: with H5; scale: % of reporter cells activated
row,Variant,ratio to parent
1,chain 5 I3L,0.74
2,chain 5 I3N,0.367
3,chain 5 I3P,0.49
4,chain 5 I3S,0.276
5,chain 5 I3G,0.347
6,chain 5 I3R,0.403
7,chain 5 I3K,0.423
8,chain 5 I3E,0.357
9,chain 5 I3Q,0.337
10,chain 5 I3F,0.276
11,chain 5 I3M,0.327
12,chain 5 I3Y,0.321
13,chain 5 I3C,0.5
14,chain 5 I3D,0.265
15,chain 5 I3A,0.306
16,chain 5 I3H,0.372
17,chain 5 I3W,0.286
18,chain 5 I3V,0.985
19,chain 5 I3T,0.352
20,chain 5 F5T,0.367
21,chain 5 F5W,0.515
22,chain 5 F5E,0.352
23,chain 5 F5Q,0.638
24,chain 5 F5A,0.923
25,chain 5 F5N,0.48
26,chain 5 F5H,0.719

row,Variant,ratio to parent
1,chain 5 F5R,0.311
2,chain 5 F5P,0.459
3,chain 5 F5L,0.663
4,chain 5 F5C,0.816
5,chain 5 F5M,1.13
6,chain 5 F5I,2.01
7,chain 5 F5K,0.362
8,chain 5 F5G,0.316
9,chain 5 F5S,0.531
10,chain 5 F5V,0.617
11,chain 5 F5Y,0.765
12,chain 5 F5D,0.439
13,chain 5 N4F,1.27
14,chain 5 N4Q,0.245
15,chain 5 N4E,0.367
16,chain 5 N4S,0.332
17,chain 5 N4W,0.5
18,chain 5 N4L,0.469
19,chain 5 N4R,0.454
20,chain 5 N4G,0.362
21,chain 5 N4I,0.347
22,chain 5 N4H,8.69
23,chain 5 N4V,0.332
24,chain 5 N4D,0.316
25,chain 5 N4Y,1.1
26,chain 5 N4M,0.352

row,Variant,ratio to parent
1,chain 5 N4P,0.255
2,chain 5 N4C,0.49
3,chain 5 N4T,0.352
4,chain 5 N4K,0.592
5,chain 5 N4A,0.301
6,chain 5 E6Q,0.357
7,chain 5 E6I,0.408
8,chain 5 E6H,0.643
9,chain 5 E6L,0.265
10,chain 5 E6G,0.306
11,chain 5 E6F,0.296
12,chain 5 E6C,0.342
13,chain 5 E6M,0.311
14,chain 5 E6D,0.235
15,chain 5 E6W,0.25
16,chain 5 E6A,0.454
17,chain 5 E6Y,0.332
18,chain 5 E6V,0.342
19,chain 5 E6N,0.301
20,chain 5 E6R,0.362
21,chain 5 E6K,0.332
22,chain 5 E6T,0.459
23,chain 5 E6P,0.301
24,chain 5 E6S,0.444
25,chain 5 L8M,0.689
26,chain 5 L8N,0.281

row,Variant,ratio to parent
1,chain 5 L8T,0.719
2,chain 5 L8S,0.464
3,chain 5 L8H,0.985
4,chain 5 L8C,0.781
5,chain 5 L8W,0.255
6,chain 5 L8E,0.49
7,chain 5 L8F,0.423
8,chain 5 L8G,0.515
9,chain 5 L8P,0.332
10,chain 5 L8A,0.709
11,chain 5 L8V,0.531
12,chain 5 L8Q,0.842
13,chain 5 L8I,0.786
14,chain 5 L8R,0.485
15,chain 5 L8D,0.352
16,chain 5 L8K,0.837
17,chain 5 L8Y,0.755
18,chain 5 K7T,1.8
19,chain 5 K7S,0.76
20,chain 5 K7Q,0.592
21,chain 5 K7C,0.77
22,chain 5 K7L,0.638
23,chain 5 K7M,0.362
24,chain 5 K7W,0.352
25,chain 5 K7A,0.648
26,chain 5 K7H,0.806

row,Variant,ratio to parent
1,chain 5 K7V,0.75
2,chain 5 K7E,4.34
3,chain 5 K7D,0.597
4,chain 5 K7R,1.01
5,chain 5 K7Y,0.383
6,chain 5 K7G,0.811
7,chain 5 K7N,0.893
8,chain 5 K7P,0.551
9,chain 5 K7I,1.12
10,chain 5 K7F,0.306
11,chain 5 S1W,0.332
12,chain 5 S1C,0.316
13,chain 5 S1G,0.25
14,chain 5 S1I,0.454
15,chain 5 S1Y,0.27
16,chain 5 S1K,0.602
17,chain 5 S1P,0.383
18,chain 5 S1E,0.281
19,chain 5 S1H,0.474
20,chain 5 S1N,0.352
21,chain 5 S1M,2.39
22,chain 5 S1Q,0.469
23,chain 5 S1R,0.852
24,chain 5 S1L,0.398
25,chain 5 S1V,0.388
26,chain 5 S1F,0.638

row,Variant,ratio to parent
1,chain 5 S1A,0.474
2,chain 5 S1D,0.281
3,chain 5 S1T,0.587
4,chain 5 I2P,0.327
5,chain 5 I2F,0.653
6,chain 5 I2T,0.526
7,chain 5 I2N,0.362
8,chain 5 I2S,0.75
9,chain 5 I2V,1.03
10,chain 5 I2L,0.607
11,chain 5 I2Y,0.352
12,chain 5 I2Q,0.454
13,chain 5 I2H,0.332
14,chain 5 I2E,0.408
15,chain 5 I2W,0.378
16,chain 5 I2K,0.388
17,chain 5 I2R,0.24
18,chain 5 I2M,0.684
19,chain 5 I2C,0.74
20,chain 5 I2A,0.663
21,chain 5 I2D,0.505
22,chain 5 I2G,0.505

# Variants of: B4
# Assay: % of reporter cells activated (NFAT-GFP), raw
# Conditions: with B13; scale: % of reporter cells activated
row,Variant,ratio to parent
1,chain 5 F5R,0.0811
2,chain 5 N4E,0.156
3,chain 5 I2A,1.04
4,chain 5 I2Y,2.07
5,chain 5 I2R,1.49
6,chain 5 I2M,0.411
7,chain 5 I2P,0.285
8,chain 5 K7P,0.0545
9,chain 5 K7F,1.21
10,chain 5 K7N,1.14
11,chain 5 L8S,2.06
12,chain 5 E6A,0.0525
13,chain 5 E6R,0.024
